Tested on: MS2 coat protein
Assay: apparent KD of MS2 coat protein; designed switch direction (-1 OFF switch, 1 ON switch): -1; higher = weaker reporter binding
Summary of the method: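 Stalled E. coli RNA polymerase transcribed designed RNA switches on Illumina chips, which were then titrated with SNAP-549-labelled MS2 coat protein, doubling from 0.7 or 1.5 nM to 3 µM. Steps lasted from 0.8–1.5 h at the lowest concentration to 10–20 min at the highest. The apparent KD is each design's median over clusters of curve-fitted normalised fluorescence.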

[1] = Eterna round: R95, input ligand: microRNA oligo, concentration not stated
[2] = input ligand: microRNA oligo, concentration not stated

Sequence	apparent KD of MS2 coat protein (Eterna round: R95, input ligand: FMN 200 uM)	apparent KD of MS2 coat protein [1]	apparent KD of MS2 coat protein (Eterna round: R95, input ligand: none)	apparent KD of MS2 coat protein (input ligand: FMN 200 uM)	apparent KD of MS2 coat protein (input ligand: none)	apparent KD of MS2 coat protein [2]
UAAUAGCAAGCAAGAUCCCACAUGAGGAUCACCCAUGUGCUCGUCUUAUAAGGUACUGUGACGAAAGUCACGGUACC [Sensor 3, v1 - 98] (puzzle: Sensor v3, turn-off variant 1)	0.0455 µM	0.535 µM	0.0475 µM			
UUUUGACAUGAGGAUCACCCAUGUGAGGAUAUGAUGCGAUCGUCGAAAGACGAUAGCAUCAGAAGGCACAUAUG [Fiskers Ex 1 - 9] (puzzle: Exclusion 1)		0.125 µM				
UUCAUGUAAGGAUAUCGUGCAAGUUUCAAAAGAGGCUUGUGCGAGAAGGUACAUGAGGAUCACCCAUGUAGGUU [Omei Ex4 B9] (Eterna round: R97, puzzle: Exclusion 4)				0.0869 µM	0.754 µM	
CCUCUACAUGAGGAUCACCCAUGUCAGGAUAUGCGAAUUUCAUCAAAAGAUGAAAUUUGCAGAAGGGACUAAGC [Omei Ex1 A34] (Eterna round: R97, puzzle: Exclusion 1)				0.282 µM	0.246 µM	
GGUCGUUUAGUGAGGAUAUGCAGCGUCAUAGCGCAGCAGAAGGCACAUGAGGAUCACCCAUGUCCUCCCAAAAG [Eternabot (L1) Solution 9] (Eterna round: R97, puzzle: Brourd's mod of Exclusion 4)				0.253 µM	0.0189 µM	
AGAAGUGCCGAGGAUAUCCAGGCAAUCUCGUUCGGAGAAGGCGGCACUUGAGGAUCACCCAAGUGCUCCAAAAG [Essoatxe] (Eterna round: R97, puzzle: Exclusion 6)				0.0592 µM	0.0189 µM	
AGUACUAUCACGAAAGUGAUAGUACAAUAAGCAAGUGAAACAUGAGGAUCACCCAUGUCCUCAUUUGCUCGUCUUAU [JL turnoff v2 74] (Eterna round: R96, puzzle: Sensor v2, turn-off variant 2)				0.0167 µM	0.0191 µM	0.4 µM
UGAUCUAGCGGAGGAUAUACAUGAGGAUCACCCAUGUAGACUCUAUGACCGUAGUCGUGGAGUGUGUAGAAGGCCGCUAGAUCU [JL ENG2 3.74] (Eterna round: R96, puzzle: Exclusion NG 2)				0.0143 µM	0.0126 µM	0.00924 µM
AAAGUGUGAGGAUAUUAGUUGUACGUCAAUAGACGUAUAAGUGAGAAGGCACAUGAGGAUCACCCAUGUUCCUG [Omei Ex4 Mod of Mat's R95 mod of Omei v5] (Eterna round: R97, puzzle: Exclusion 4)				0.0997 µM	0.0219 µM	
AUUAGUAAUAAGGAUAUCACUAGCUUCGGCUAGUGAGAAGGUAUUACAUGAGGAUCACCCAUGUGAUUAAUUAA [E6/5-A1] (Eterna round: R97, puzzle: Exclusion 6)				0.446 µM	0.0753 µM	
ACAGUGCGAGGAUAUACAUGAGGAUCACCCAUGUGAGAGAAAUAAGUGAGGAAGAAAAGUAGAAGGCGCGUUGA [Mat - Exclusion 3 - Mod of Salish D70] (puzzle: Exclusion 3)		0.0458 µM				
AAAUAAAGGUAGGAUAUCGAUUUUAAUUAAUAUCGAGAAGGGUCAACAUGAGGAUCACCCAUGUCAGCAUGUAA [LRO-Excl6-01-Rocketman] (Eterna round: R97, puzzle: Exclusion 6)				0.0599 µM	0.0642 µM	
AAUUUACAUGAGGAUCACCCAUGUGAGGAUAUAUGUUUAAAUUUUUUUUUUUUUUUUCAUAGAAGGCGCGUGAU [JR_Exc1_Sub048] (Eterna round: R97, puzzle: Exclusion 1)				0.0173 µM	0.0316 µM	
UAAGAUUACCGAGGAUAUGCUGGUUUCUAUUAAGCAGAAGGCGGACUCAACAUGAGGAUCACCCAUGUAAGAAGGGUAUUAGAU [Ex NG1 #9] (Eterna round: R96, puzzle: Exclusion NG 1)				0.0898 µM	0.0948 µM	0.0821 µM

— the supplement of paper PMC9170038
